Values quoted from earlier work as cited in PMC6699087.

Biological target: Hsp90 (Homo sapiens) (UniProt P08238)
Sequence of UniProt P08238 (P08238 2-724): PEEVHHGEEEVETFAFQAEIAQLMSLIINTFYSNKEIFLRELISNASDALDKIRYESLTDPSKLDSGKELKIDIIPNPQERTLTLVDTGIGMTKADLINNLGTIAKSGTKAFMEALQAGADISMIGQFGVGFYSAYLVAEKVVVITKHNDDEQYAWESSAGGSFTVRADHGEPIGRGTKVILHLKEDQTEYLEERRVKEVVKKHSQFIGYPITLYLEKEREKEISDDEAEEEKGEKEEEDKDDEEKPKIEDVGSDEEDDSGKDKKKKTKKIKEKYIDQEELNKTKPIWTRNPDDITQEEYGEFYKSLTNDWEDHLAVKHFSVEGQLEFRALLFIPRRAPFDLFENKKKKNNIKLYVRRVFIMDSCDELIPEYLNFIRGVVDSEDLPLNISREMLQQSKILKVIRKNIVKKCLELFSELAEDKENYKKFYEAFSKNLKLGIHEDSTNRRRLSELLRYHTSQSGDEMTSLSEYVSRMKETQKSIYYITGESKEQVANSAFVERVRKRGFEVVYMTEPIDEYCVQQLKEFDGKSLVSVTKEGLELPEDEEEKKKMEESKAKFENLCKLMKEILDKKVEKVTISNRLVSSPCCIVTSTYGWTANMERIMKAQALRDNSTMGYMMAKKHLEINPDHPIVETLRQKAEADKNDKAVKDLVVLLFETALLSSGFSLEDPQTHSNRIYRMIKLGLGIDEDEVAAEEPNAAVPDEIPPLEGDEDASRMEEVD

- Kd: 0.5 µM
Substance: Aha1 (from UniProt O95433)
